# Laboratory results reported in paper PMC9351452 (Proceedings of the National Academy of Sciences of the …, 2022).
# Read-outs that look alike come from different tables or passages of the source.
# Tests used:
# [1] = biological target: T1, DCCP-R (double-cubane cluster protein reductase) (Carboxydothermus hydrogenoformans, UniProt Q3AET8); assay: isothermal titration calorimetry; type: binding
# T1 sequence (Q3AET8 1-245): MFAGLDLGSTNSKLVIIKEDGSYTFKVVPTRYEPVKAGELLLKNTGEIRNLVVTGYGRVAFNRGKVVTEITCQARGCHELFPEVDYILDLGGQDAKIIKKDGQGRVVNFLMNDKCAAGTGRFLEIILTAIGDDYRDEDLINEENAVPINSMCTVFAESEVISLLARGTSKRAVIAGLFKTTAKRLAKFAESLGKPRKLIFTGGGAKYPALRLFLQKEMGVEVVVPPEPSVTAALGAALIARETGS
# DCCP:DCCP-R complex = biological target: T2, DCCP:DCCP-R complex (Carboxydothermus hydrogenoformans, UniProt Q3AET8); assay: isothermal titration calorimetry; type: binding; conditions: Mg2+; 50 mM Tris-HCl pH 8.0, 25 °C, anoxic; DCCP present in cell; reduced DCCP-R
# T2 sequence (Q3AET8 1-245): T1 sequence (Q3AET8 1-245)
# T2 sequence (Q3AET9 1-421 partner): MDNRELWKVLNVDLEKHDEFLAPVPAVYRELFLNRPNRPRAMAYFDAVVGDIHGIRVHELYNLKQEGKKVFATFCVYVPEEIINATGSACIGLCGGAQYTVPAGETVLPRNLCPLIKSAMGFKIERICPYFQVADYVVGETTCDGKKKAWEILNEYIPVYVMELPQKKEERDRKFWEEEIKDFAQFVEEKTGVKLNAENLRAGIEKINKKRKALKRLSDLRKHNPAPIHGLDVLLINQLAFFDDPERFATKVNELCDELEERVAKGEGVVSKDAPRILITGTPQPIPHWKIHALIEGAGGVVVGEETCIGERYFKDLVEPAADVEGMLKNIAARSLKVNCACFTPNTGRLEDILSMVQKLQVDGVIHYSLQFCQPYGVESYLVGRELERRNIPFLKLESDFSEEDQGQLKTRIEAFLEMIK
# [2] = biological target: double-cubane cluster protein (DCCP); assay: ITC
# [3] = biological target: double-cubane cluster protein reductase (DCCP-R); assay: SEC
# [4] = biological target: double-cubane cluster protein (DCCP); assay: ITC; remark: listed apart in the source
# [5] = biological target: double-cubane cluster protein reductase (DCCP-R) from Carboxydothermus hydrogenoformans (Carboxydothermus hydrogenoformans); assay: SEC
# [6] = biological target: double-cubane cluster protein (DCCP); assay: SEC
# [7] = biological target: double-cubane cluster protein (DCCP); assay: SEC; remark: listed apart in the source
compound,measurement,setting,value
"Nc1ncnc2c1ncn2[C@@H]1O[C@H](COP(=O)(O)OP(=O)(O)NP(=O)(O)O)[C@@H](O)[C@H]1O [MgADPNP, 5′-adenylyl β, γ-imidodiphosphate]",Kd,[1],15 ± 0.5 µM
same,Kd,DCCP:DCCP-R complex,7.1 ± 1.1 µM
double-cubane cluster protein reductase (DCCP-R) (enzyme),dH,[2],5.9 kcal/mol
same,stoichiometry N,[3],2
same,dH,[4],-31.5 kcal/mol
double-cubane cluster protein reductase (DCCP-R) from Carboxydothermus hydrogenoformans (enzyme),stoichiometry N,[5],2
double-cubane cluster protein (DCCP) (enzyme),stoichiometry N,[6],2
same,stoichiometry N,[7],2
Nc1ncnc2c1ncn2[C@@H]1O[C@H](COP(=O)(O)OP(=O)(O)O)[C@@H](O)[C@H]1O [MgADP],Kd,[1],42 ± 7 µM
